{"source": "patent US6646113", "about": "(University of Pennsylvania, dated 2003)", "key": {"[1]": {"biological_target": "T1, His-tagged SMN wild type, purified recombinant (human, UniProt Q16637 1-294)", "T1 construct": "E. coli BL21(DE3)pLysS, nickel chelation chromatography; also called His-SMN; His6-SMN; not shown: His6 tag (pET28 vector, detected with anti-T7 tag antibody)", "T1 sequence (Q16637 whole entry)": "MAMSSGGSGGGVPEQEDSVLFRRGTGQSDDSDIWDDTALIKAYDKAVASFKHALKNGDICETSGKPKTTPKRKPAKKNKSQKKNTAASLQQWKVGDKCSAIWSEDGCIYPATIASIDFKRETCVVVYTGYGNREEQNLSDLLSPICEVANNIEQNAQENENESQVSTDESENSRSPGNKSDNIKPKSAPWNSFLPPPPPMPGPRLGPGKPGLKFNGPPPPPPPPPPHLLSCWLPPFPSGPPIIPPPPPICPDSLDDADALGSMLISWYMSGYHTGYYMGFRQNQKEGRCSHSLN", "test": "in vitro binding of purified recombinant protein to GST-SIP1"}, "[2]": {"biological_target": "T2, His-tagged SMNY272C, purified recombinant (human, UniProt Q16637 1-294)", "T2 construct": "also called His-SMNY272C; SMNY272C recombinant protein; not shown: His6 tag (pET28 vector)", "T2 sequence (Q16637 whole entry Y272C)": "as the sequence (Q16637 whole entry) above, with Y272C counted along it", "test": "in vitro binding of purified recombinant protein to GST-SIP1"}, "[3]": {"biological_target": "T3, myc-tagged SMNY272C (human, UniProt Q16637 1-294)", "T3 construct": "In vitro translated (35S) or expressed in 293T cells", "T3 sequence (Q16637 whole entry Y272C)": "as the sequence (Q16637 whole entry) above, with Y272C counted along it", "test": "co-IP with 2E17 from transfected 293T cells, Western blot"}, "[4]": {"biological_target": "T4, SMN, endogenous protein in human cell extracts (human, UniProt Q16637 2-294)", "T4 construct": "also called Survival of Motor Neurons protein", "T4 sequence (Q16637 2-294 limits assumed)": "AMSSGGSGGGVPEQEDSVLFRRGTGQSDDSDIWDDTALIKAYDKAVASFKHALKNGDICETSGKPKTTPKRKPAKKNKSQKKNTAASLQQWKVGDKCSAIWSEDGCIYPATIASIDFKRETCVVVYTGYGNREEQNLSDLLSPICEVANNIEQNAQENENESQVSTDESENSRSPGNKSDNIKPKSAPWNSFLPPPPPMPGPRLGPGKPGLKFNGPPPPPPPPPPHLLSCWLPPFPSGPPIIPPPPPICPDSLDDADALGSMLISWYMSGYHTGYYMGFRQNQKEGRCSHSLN", "test": "gel filtration (Superose 6 HR 10/30) of HeLa S100, Western blot"}, "[5]": {"biological_target": "T5, myc-tagged SMN wild type (human, UniProt Q16637 1-294)", "T5 construct": "In vitro translated (35S) or expressed in transfected 293T cells; also called myc-SMN; mycSMN", "T5 sequence (Q16637 whole entry)": "as the sequence (Q16637 whole entry) above", "test": "co-IP with 2E17 from transfected 293T cells, Western blot (association in a complex)"}, "[6]": {"biological_target": "T4, SMN, endogenous protein in human cell …", "test": "co-IP with 2B1 from transfected 293T cells, Western blot"}, "[7]": {"biological_target": "recombinant SMN protein (far-Western target) (human, UniProt Q16637 1-294, limits assumed)", "sequence (Q16637 whole entry)": "as above", "test": "far-Western with in vitro translated SIP1"}, "[8]": {"biological_target": "Sm D1 protein, in vitro translated and 35S-labeled (UniProt P62314 1-119)", "test": "GST pull-down, 35S IVT protein"}, "[9]": {"biological_target": "T6, GST alone (UniProt P08515 1-218 = GST)", "T6 construct": "Negative control on glutathione-Sepharose; also called glutathione S-transferase", "T6 sequence (P08515 whole entry)": "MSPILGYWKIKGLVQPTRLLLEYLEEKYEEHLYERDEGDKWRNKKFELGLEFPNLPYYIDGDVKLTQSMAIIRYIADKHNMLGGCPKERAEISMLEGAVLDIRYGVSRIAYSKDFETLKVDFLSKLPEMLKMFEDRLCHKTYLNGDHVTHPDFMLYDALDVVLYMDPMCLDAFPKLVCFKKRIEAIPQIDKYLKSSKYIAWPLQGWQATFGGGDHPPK", "test": "GST pull-down, 35S IVT protein"}, "[10]": {"biological_target": "T7, GST-SMN fusion protein (human, UniProt Q16637 1-294)", "T7 construct": "Recombinant from E. coli, immobilised on glutathione-Sepharose; also called GST-SMNwt; GST-SMN chimeric protein; not shown: glutathione S-transferase (GST) tag of vector pGEX-5X", "T7 sequence (Q16637 whole entry, the tested form may be a part)": "as the sequence (Q16637 whole entry) above", "test": "GST pull-down, 35S IVT protein"}, "[11]": {"biological_target": "T7, GST-SMN fusion protein", "test": "GST pull-down, 35S IVT protein (FIG. 44)"}}}
{"binder": "GST-SIP1 fusion protein (other, not shown: a dimerising Fc or GST) MRRAELAGLKTMAWVPAESAVEELMPRLLPVEPCDLTEGFDPSVPPRTPQEYLRRVQIEAAQCPDVVVAQIDPKKLKRKQSVNISLSGCQPAPEGYSPTLQWQQQQVAQFSTVRQNVNKHRSHWKSQQLDSNVTMPKSEDEEGWKKFCLGEKLCADGAVGPATNESPGIDYVQIGFPPLLSIVSRMNQATVTSVLEYLSNWFGERDFTPELGRWLYALLACLEKPLLPEAHSLIRQLARRCSEVRLLVDSKDDERVPALNLLICLVSRYFDQRDLADEPS", "values": [{"measurement": "binding result", "setting": "[1]", "result": "binds"}, {"measurement": "binding result", "setting": "[2]", "result": "binds"}]}
{"binder": "SIP1 (Gemin2), endogenous protein in human cell extracts (other) MRRAELAGLKTMAWVPAESAVEELMPRLLPVEPCDLTEGFDPSVPPRTPQEYLRRVQIEAAQCPDVVVAQIDPKKLKRKQSVNISLSGCQPAPEGYSPTLQWQQQQVAQFSTVRQNVNKHRSHWKSQQLDSNVTMPKSEDEEGWKKFCLGEKLCADGAVGPATNESPGIDYVQIGFPPLLSIVSRMNQATVTSVLEYLSNWFGERDFTPELGRWLYALLACLEKPLLPEAHSLIRQLARRCSEVRLLVDSKDDERVPALNLLICLVSRYFDQRDLADEPS", "values": [{"measurement": "binding result", "setting": "[3]", "result": "binds"}, {"measurement": "binding result", "setting": "[4]", "result": "binds"}, {"measurement": "binding result", "setting": "[5]", "result": "binds"}]}
{"binder": "myc-tagged SIP1 wild type (other, not shown: small tags and cut ends, In vitro translated (35S) or expressed in 293T cells; also called myc-SIP1; myc-Gemin2) MRRAELAGLKTMAWVPAESAVEELMPRLLPVEPCDLTEGFDPSVPPRTPQEYLRRVQIEAAQCPDVVVAQIDPKKLKRKQSVNISLSGCQPAPEGYSPTLQWQQQQVAQFSTVRQNVNKHRSHWKSQQLDSNVTMPKSEDEEGWKKFCLGEKLCADGAVGPATNESPGIDYVQIGFPPLLSIVSRMNQATVTSVLEYLSNWFGERDFTPELGRWLYALLACLEKPLLPEAHSLIRQLARRCSEVRLLVDSKDDERVPALNLLICLVSRYFDQRDLADEPS", "values": [{"measurement": "binding result", "setting": "[6]", "result": "binds"}]}
{"binder": "SIP1 (human), in vitro translated and 35S-labeled (other, Made in rabbit reticulocyte lysate; also called full-length SIP1; Gemin2) MRRAELAGLKTMAWVPAESAVEELMPRLLPVEPCDLTEGFDPSVPPRTPQEYLRRVQIEAAQCPDVVVAQIDPKKLKRKQSVNISLSGCQPAPEGYSPTLQWQQQQVAQFSTVRQNVNKHRSHWKSQQLDSNVTMPKSEDEEGWKKFCLGEKLCADGAVGPATNESPGIDYVQIGFPPLLSIVSRMNQATVTSVLEYLSNWFGERDFTPELGRWLYALLACLEKPLLPEAHSLIRQLARRCSEVRLLVDSKDDERVPALNLLICLVSRYFDQRDLADEPS", "values": [{"measurement": "binding result", "setting": "[7]", "result": "binds"}]}
{"binder": "GST-Gemin3 fusion protein (other, also called Gemin3-GST; not shown: glutathione S-transferase (GST) tag of vector pGEX-5X-3) MAAAFEASGALAAVATAMPAEHVAVQVPAPEPTPGPVRILRTAQDLSSPRTRTGDVLLAEPADFESLLLSRPVLEGLRAAGFERPSPVQLKAIPLGRCGLDLIVQAKSGTGKTCVFSTIALDSLVLENLSTQILILAPTREIAVQIHSVITAIGIKMEGLECHVFIGGTPLSQDKTRLKKCHIAVGSPGRIKQLIELDYLNPGSIRLFILDEADKLLEEGSFQEQINWIYSSLPASKQMLAVSATYPEFLANALTKYMRDPTFVRLNSSDPSLIGLKQYYKVVNSYPLAHKVFEEKTQHLQELFSRIPFNQALVFSNLHSRAQHLADILSSKGFPAECISGNMNQNQRLDAMAKLKHFHCRVLISTDLTSRGIDAEKVNLVVNLDVPLDWETYMHRIGRAGRFGTLGLTVTYCCRGEEENMMMRIAQKCNINLLPLPDPIPSGLMEECVDWDVEVKAAVHTYGIASVPNQPLKKQIQKIERTLQIQKAHGDHMASSRNNSVSGLSVKSKNNTKQKLPVKSHSECGIIEKATSPKELGCDRQSEEQMKNSVQTPVENSTNSQHQVKEALPVSLPQIPCLSSFKIHQPYTLTFAELVEDYEHYIKEGLEKPVEIIRHYTGPGDQTVNPQNGFVRNKVIEQKVPVLASSSQSGDSESDSDSYSSRTSSQSKGNKSYLESSSDNQLKDSESTPVDDRISLEQPPNGTDTPNPEKYQESPGIQMKTRLKEGASQRAKQSRRNLPRRSSFRLQTEAQEDDWYDCHREIRLSFSDTYQDYEEYWRAYYRAWQEYYAAASHSYYWNAQRHPSWMAAYHMNTIYLQEMMHSNQ", "values": [{"measurement": "binding result", "setting": "[8]", "result": "no binding"}]}
{"binder": "myc-ΔN368C277Gemin3 (other, not shown: small tags and cut ends, also called ΔN368C272Gemin3) TSRGIDAEKVNLVVNLDVPLDWETYMHRIGRAGRFGTLGLTVTYCCRGEEENMMMRIAQKCNINLLPLPDPIPSGLMEECVDWDVEVKAAVHTYGIASVPNQPLKKQIQKIERTLQIQKAHGDHMASSRNNSVSGLSVKSKNNTKQKLPVKSHSECGIIEKATSPKELGCDRQSEEQMK", "values": [{"measurement": "binding result", "setting": "[9]", "result": "no binding"}]}
{"binder": "myc-ΔN548Gemin3 (other, not shown: small tags and cut ends) SVQTPVENSTNSQHQVKEALPVSLPQIPCLSSFKIHQPYTLTFAELVEDYEHYIKEGLEKPVEIIRHYTGPGDQTVNPQNGFVRNKVIEQKVPVLASSSQSGDSESDSDSYSSRTSSQSKGNKSYLESSSDNQLKDSESTPVDDRISLEQPPNGTDTPNPEKYQESPGIQMKTRLKEGASQRAKQSRRNLPRRSSFRLQTEAQEDDWYDCHREIRLSFSDTYQDYEEYWRAYYRAWQEYYAAASHSYYWNAQRHPSWMAAYHMNTIYLQEMMHSNQ", "values": [{"measurement": "binding result", "setting": "[10]", "result": "no binding"}]}
{"binder": "myc-tagged SIP1ΔC89 (other, not shown: small tags and cut ends, The whole entry must be cut by 89 residues at the C-terminus) MRRAELAGLKTMAWVPAESAVEELMPRLLPVEPCDLTEGFDPSVPPRTPQEYLRRVQIEAAQCPDVVVAQIDPKKLKRKQSVNISLSGCQPAPEGYSPTLQWQQQQVAQFSTVRQNVNKHRSHWKSQQLDSNVTMPKSEDEEGWKKFCLGEKLCADGAVGPATNESPGIDYVQIGFPPLLSIVSRMNQATV", "values": [{"measurement": "binding result", "setting": "[11]", "result": "no binding"}, {"measurement": "binding result", "setting": "[6]", "result": "no binding"}]}
{"binder": "myc-tagged SIP1ΔC162 (other, not shown: small tags and cut ends) MRRAELAGLKTMAWVPAESAVEELMPRLLPVEPCDLTEGFDPSVPPRTPQEYLRRVQIEAAQCPDVVVAQIDPKKLKRKQSVNISLSGCQPAPEGYSPTLQWQQQQVAQFSTVRQNVN", "values": [{"measurement": "binding result", "setting": "[11]", "result": "no binding"}]}
